Laboratory results published in PMC3433420.
“And” between values parts separate entries of the source, which are not always exact repeats. Equal values may be shown once. Read-outs that look alike come from different tables or passages of the source. Values belong to the substance of their own block, whether it stands above or below them.

Columns and labels:
[1] = molecular target: SRC SH2 domain (human) (UniProt P12931); assay: peptide or protein array; SH2/PTB proteins spotted on aldehyde slides, rhodamine peptide titrated in buffer B (20 mM HEPES, 100 mM KCl, 0.1% Tween-20, 5 mM DTT, pH 7.8), 1 h at room temperature; replicate assays
[2] = molecular target: ITK SH2 domain (human) (UniProt Q08881); assay: as above
[3] = molecular target: SYK tandem SH2 domains (human); assay: as above
[4] = molecular target: BLK SH2 domain (human) (UniProt P51451); assay: as above
[5] = molecular target: BLNK SH2 domain (human) (UniProt Q8WV28); assay: as above
[6] = molecular target: SH3BP2 SH2 domain (human) (UniProt P78314); assay: as above
[7] = molecular target: SYK N-terminal SH2 domain (human); assay: as above
[8] = molecular target: RASA1 N-terminal SH2 domain (human) (UniProt P20936); assay: as above
[9] = molecular target: SH2D3A SH2 domain (human) (UniProt Q9BRG2); assay: as above
[10] = molecular target: PIK3R1-C (Homo sapiens) (UniProt P27986); settings: cited from earlier work
[11] = molecular target: VAV2 (Homo sapiens) (UniProt P52735); settings: cited from earlier work
[12] = molecular target: PIK3R1-C (Homo sapiens) (UniProt P27986); settings: cited from earlier work; remark: listed apart in the source
[13] = molecular target: PIK3R1-NC (Homo sapiens) (UniProt P27986); settings: cited from earlier work
[14] = molecular target: TENC1 (Homo sapiens) (UniProt Q63HR2); settings: cited from earlier work
[15] = molecular target: BLK (Homo sapiens) (UniProt P51451); settings: cited from earlier work
[16] = molecular target: LYN (Homo sapiens) (UniProt P07948); settings: cited from earlier work
[17] = molecular target: CRKL (Homo sapiens) (UniProt P46109); settings: cited from earlier work
[18] = molecular target: ITK (Homo sapiens) (UniProt Q08881); settings: cited from earlier work
[19] = molecular target: PLCG1-N (Homo sapiens) (UniProt P19174); settings: cited from earlier work
[20] = molecular target: ITK (Homo sapiens) (UniProt Q08881); settings: cited from earlier work; remark: listed apart in the source
[21] = molecular target: YES1 (Homo sapiens) (UniProt P07947); settings: cited from earlier work
[22] = molecular target: TENC1 (Homo sapiens) (UniProt Q63HR2); settings: cited from earlier work; remark: listed apart in the source
[23] = molecular target: SH2D1A (Homo sapiens) (UniProt O60880); settings: cited from earlier work
[24] = molecular target: TNS3 (Homo sapiens) (UniProt Q68CZ2); settings: cited from earlier work
[25] = molecular target: RASA1-C (Homo sapiens) (UniProt P20936); settings: cited from earlier work
[26] = molecular target: PLCG1-NC (Homo sapiens) (UniProt P19174); settings: cited from earlier work
Sequence of PLCG1-NC (Homo sapiens) (P19174 545-761): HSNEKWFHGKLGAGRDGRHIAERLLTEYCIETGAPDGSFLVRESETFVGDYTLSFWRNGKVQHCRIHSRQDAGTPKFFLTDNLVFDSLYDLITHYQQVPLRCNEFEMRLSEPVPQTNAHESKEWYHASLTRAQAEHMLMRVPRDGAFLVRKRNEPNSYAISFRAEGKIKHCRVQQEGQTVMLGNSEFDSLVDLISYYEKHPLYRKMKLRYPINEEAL

Sequence of BLK SH2 domain (human) (P51451 124-220): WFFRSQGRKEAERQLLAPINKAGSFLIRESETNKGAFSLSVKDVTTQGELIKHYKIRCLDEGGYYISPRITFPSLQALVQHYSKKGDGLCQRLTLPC
Sequence of SH2D3A SH2 domain (human) (Q9BRG2 15-114): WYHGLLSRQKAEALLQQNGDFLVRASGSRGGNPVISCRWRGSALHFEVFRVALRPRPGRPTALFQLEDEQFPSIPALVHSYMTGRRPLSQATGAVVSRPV
Sequence of ITK (Homo sapiens) (Q08881 234-343): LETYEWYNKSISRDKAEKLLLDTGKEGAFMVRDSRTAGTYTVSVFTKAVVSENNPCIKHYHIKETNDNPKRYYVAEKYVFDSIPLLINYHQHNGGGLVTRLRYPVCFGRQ
Sequence of ITK SH2 domain (human) (Q08881 239-338): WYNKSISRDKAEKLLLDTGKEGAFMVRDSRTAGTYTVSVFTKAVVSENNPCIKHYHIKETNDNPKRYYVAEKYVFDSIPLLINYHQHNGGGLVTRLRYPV
Sequence of TENC1 (Homo sapiens) (Q63HR2 1135-1252): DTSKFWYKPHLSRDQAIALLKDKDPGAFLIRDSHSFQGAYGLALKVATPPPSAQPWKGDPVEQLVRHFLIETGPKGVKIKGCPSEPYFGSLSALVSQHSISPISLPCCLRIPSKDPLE
Sequence of PIK3R1-C (Homo sapiens) (P27986 328-723): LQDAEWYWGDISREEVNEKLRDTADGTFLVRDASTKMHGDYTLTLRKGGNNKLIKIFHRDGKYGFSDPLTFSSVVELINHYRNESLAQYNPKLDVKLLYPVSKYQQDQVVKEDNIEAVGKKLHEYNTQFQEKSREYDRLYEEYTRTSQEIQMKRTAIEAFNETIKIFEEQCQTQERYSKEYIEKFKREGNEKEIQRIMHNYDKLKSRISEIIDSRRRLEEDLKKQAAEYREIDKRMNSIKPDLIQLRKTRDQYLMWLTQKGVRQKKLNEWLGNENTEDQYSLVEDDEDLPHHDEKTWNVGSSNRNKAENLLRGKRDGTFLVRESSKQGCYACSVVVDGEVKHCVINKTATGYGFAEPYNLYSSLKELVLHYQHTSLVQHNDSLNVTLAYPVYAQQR
Sequence of RASA1 N-terminal SH2 domain (human) (P20936 whole entry, the tested form may be a part): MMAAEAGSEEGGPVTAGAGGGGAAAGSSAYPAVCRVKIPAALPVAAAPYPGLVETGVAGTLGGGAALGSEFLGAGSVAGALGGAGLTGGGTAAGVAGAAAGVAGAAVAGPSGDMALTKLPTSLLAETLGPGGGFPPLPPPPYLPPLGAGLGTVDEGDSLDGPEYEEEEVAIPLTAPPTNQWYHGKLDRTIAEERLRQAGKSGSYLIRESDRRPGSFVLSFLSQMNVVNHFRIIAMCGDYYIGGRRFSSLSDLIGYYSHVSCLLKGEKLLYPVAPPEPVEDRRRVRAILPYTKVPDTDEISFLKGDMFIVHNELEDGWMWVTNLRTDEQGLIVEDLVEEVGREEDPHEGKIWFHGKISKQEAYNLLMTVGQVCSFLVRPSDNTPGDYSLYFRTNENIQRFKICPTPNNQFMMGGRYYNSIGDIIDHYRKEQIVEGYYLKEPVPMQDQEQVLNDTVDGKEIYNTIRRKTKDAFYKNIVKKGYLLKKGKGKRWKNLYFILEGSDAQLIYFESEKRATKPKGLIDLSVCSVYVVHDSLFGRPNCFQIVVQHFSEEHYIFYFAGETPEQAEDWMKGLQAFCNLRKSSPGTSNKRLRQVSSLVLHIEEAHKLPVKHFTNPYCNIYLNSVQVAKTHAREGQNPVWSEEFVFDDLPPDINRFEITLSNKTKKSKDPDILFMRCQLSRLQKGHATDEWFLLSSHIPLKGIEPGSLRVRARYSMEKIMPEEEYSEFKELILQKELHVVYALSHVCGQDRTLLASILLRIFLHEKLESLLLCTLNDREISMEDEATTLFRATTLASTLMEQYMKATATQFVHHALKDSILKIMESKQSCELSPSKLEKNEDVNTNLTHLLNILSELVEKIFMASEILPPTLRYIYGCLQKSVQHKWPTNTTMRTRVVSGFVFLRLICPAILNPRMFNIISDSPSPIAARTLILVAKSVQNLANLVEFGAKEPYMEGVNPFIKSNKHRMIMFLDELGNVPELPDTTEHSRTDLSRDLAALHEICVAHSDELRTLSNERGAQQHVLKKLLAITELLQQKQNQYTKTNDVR
Sequence of SH3BP2 SH2 domain (human) (P78314 457-555): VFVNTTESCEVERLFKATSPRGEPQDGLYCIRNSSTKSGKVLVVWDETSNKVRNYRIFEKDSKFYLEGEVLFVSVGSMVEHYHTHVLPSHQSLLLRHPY
Sequence of YES1 (Homo sapiens) (P07947 153-260): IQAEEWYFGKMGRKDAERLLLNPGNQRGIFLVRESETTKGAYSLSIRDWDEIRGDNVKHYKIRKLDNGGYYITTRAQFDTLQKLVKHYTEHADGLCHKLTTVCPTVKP
Sequence of TNS3 (Homo sapiens) (Q68CZ2 1167-1287): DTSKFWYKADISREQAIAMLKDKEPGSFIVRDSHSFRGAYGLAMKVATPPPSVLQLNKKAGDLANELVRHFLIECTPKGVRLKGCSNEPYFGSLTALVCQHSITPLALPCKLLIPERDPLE
Sequence of SH2D1A (Homo sapiens) (O60880 1-109): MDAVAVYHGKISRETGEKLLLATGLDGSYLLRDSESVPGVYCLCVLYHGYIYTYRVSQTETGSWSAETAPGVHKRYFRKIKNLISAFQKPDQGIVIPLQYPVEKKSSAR
Sequence of LYN (Homo sapiens) (P07948 124-231): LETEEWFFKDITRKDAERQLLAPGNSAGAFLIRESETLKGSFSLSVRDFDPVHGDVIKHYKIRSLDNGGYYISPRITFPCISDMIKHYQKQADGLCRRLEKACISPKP
Sequence of RASA1-C (Homo sapiens) (P20936 176-446): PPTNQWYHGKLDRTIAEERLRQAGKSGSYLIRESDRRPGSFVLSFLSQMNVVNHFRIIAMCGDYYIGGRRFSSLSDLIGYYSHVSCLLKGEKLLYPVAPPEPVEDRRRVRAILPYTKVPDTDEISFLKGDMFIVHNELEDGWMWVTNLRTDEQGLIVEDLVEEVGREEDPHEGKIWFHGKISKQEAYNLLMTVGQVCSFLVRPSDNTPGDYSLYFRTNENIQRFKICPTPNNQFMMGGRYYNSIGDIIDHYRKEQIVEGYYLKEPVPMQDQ
Sequence of BLNK SH2 domain (human) (Q8WV28 346-453): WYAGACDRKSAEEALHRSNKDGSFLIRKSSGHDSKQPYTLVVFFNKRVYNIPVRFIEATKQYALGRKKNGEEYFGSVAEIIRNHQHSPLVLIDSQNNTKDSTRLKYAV
Sequence of CRKL (Homo sapiens) (P46109 9-107): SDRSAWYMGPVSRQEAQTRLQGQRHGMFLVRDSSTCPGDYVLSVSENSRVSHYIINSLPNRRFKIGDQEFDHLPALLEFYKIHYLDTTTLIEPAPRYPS
Sequence of BLK (Homo sapiens) (P51451 119-225): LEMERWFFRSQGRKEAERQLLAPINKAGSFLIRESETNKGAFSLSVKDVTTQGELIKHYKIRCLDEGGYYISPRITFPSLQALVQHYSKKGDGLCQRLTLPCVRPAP
Sequence of VAV2 (Homo sapiens) (P52735 668-772): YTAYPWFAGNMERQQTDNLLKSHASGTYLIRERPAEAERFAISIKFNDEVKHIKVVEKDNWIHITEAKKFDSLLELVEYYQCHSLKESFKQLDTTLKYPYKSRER
Sequence of PLCG1-N (Homo sapiens) (P19174 545-761): as the sequence (P19174 545-761) above
Sequence of PIK3R1-NC (Homo sapiens) (P27986 328-723): as the sequence (P27986 328-723) above

- Kd [1]: 403 nM and 2100 nM
- Kd [2]: 401 nM and 802 nM
- Kd [3]: 164 nM and 649 nM
- Kd [4]: 170 nM and 540 nM
- Kd [5]: 1640 nM
- Kd [6]: 403 nM and 1470 nM
- Kd [7]: 319 nM and 593 nM
- Kd [8]: 299 nM and 596 nM
- Kd [9]: 177 nM and 402 nM
Substance: ErbB4 pY1262 phosphopeptide, rhodamine-labelled, for protein microarrays

Substance: …pYEEMRAFQ
- apparent Kd (screen) [10]: 64 nM
- apparent Kd (screen) [11]: 2000 nM

Substance: …pYLIPQQGFd
- apparent Kd (screen) [12]: 873 nM
- apparent Kd (screen) [13]: 175 nM
- apparent Kd (screen) [14]: 2000 nM

Substance: …pYLVPQQGF
- apparent Kd (screen) [15]: 2000 nM
- apparent Kd (screen) [16]: 2000 nM
- apparent Kd (screen) [17]: 2000 nM
- apparent Kd (screen) [18]: 445 nM

Substance: …pYWDQDPPE
- apparent Kd (screen) [19]: 2000 nM
- apparent Kd (screen) [20]: 224 nM
- apparent Kd (screen) [21]: 2000 nM
- apparent Kd (screen) [22]: 843 nM
- apparent Kd (screen) [23]: 2000 nM
- apparent Kd (screen) [24]: 1290 nM
- apparent Kd (screen) [25]: 2000 nM
- apparent Kd (screen) [26]: 1780 nM
